Test results from the supplement of paper PMC10065799, “High-throughput profiling of sequence recognition by tyrosine kinases and SH2 domains using bacterial peptide display” (eLife, 2023).

Legend:
Grb2 SH2 = Grb2 SH2 (UniProt P62993); assay: SH2 binding enrichment of the phosphorylated peptide, bacterial display (enrichment ratio); higher = better substrate or ligand; peptides without Tyr show the background
SHP2-C SH2 = assay: as above
c-Src SH2 = assay: as above
MERTK = MERTK (UniProt Q12866); assay: phosphorylation enrichment, bacterial display (enrichment ratio); higher = better substrate or ligand; peptides without Tyr show the background
MERTK, sequence (Q12866 whole entry, looked up): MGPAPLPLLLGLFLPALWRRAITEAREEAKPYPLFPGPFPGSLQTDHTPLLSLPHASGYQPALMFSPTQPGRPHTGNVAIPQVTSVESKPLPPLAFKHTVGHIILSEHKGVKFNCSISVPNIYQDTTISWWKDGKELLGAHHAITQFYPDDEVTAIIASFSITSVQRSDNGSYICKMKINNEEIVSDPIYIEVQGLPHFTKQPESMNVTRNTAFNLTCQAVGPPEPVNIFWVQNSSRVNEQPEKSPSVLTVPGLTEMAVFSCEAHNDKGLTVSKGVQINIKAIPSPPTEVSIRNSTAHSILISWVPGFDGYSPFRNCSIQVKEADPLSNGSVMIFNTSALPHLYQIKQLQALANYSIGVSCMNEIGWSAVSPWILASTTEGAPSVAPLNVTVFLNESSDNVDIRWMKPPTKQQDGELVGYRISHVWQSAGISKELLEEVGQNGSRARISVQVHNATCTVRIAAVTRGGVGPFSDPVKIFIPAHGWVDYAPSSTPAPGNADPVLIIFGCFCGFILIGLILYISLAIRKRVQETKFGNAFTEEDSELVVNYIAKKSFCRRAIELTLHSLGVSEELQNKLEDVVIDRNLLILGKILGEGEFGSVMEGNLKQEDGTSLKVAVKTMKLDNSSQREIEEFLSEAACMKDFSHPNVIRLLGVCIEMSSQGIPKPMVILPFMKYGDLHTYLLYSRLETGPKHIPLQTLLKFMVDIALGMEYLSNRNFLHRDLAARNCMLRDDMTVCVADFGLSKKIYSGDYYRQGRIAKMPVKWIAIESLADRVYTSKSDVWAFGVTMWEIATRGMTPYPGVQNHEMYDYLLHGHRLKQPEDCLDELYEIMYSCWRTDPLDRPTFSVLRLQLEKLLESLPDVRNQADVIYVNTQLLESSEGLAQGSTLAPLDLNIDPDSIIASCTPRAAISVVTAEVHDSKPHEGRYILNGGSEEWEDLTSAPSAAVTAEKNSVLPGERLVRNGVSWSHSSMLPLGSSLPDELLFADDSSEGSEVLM

EPHB1 = EPHB1 (UniProt P54762); assay: as above
EPHB1, sequence (P54762 whole entry, looked up): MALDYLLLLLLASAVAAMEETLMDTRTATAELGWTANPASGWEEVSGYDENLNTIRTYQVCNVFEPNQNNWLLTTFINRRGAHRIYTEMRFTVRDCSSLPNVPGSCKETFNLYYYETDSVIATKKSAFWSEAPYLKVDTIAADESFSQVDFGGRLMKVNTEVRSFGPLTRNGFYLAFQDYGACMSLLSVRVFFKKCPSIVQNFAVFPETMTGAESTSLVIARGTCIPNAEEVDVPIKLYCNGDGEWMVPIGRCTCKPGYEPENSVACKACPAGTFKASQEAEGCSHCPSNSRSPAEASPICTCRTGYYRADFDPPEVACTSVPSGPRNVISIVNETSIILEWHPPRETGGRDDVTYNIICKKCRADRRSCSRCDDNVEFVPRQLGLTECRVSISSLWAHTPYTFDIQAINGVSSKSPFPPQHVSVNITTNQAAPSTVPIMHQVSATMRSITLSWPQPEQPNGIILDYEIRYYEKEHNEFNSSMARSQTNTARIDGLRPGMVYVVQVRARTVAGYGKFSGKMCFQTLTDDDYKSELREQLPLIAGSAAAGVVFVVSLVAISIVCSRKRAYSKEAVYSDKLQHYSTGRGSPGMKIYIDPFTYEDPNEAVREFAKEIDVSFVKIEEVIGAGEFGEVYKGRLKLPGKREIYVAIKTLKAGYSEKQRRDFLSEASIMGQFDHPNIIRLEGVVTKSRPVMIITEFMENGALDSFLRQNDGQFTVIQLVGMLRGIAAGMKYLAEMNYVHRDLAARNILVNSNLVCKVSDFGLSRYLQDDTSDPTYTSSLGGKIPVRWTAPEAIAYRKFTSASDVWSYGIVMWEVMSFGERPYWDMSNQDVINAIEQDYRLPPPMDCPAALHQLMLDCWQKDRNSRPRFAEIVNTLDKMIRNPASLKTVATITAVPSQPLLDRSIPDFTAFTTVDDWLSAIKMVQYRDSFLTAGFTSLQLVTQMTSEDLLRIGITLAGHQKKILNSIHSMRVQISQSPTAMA

c-Src = assay: as above
EPHB2 = EPHB2 (UniProt P29323); assay: as above
c-Abl (mouse) = assay: as above
Hck = Hck (UniProt P08631); assay: as above
Fer (mouse) = assay: as above
Fyn = Fyn (UniProt P06241); assay: as above
Fyn, sequence (P06241 whole entry, looked up): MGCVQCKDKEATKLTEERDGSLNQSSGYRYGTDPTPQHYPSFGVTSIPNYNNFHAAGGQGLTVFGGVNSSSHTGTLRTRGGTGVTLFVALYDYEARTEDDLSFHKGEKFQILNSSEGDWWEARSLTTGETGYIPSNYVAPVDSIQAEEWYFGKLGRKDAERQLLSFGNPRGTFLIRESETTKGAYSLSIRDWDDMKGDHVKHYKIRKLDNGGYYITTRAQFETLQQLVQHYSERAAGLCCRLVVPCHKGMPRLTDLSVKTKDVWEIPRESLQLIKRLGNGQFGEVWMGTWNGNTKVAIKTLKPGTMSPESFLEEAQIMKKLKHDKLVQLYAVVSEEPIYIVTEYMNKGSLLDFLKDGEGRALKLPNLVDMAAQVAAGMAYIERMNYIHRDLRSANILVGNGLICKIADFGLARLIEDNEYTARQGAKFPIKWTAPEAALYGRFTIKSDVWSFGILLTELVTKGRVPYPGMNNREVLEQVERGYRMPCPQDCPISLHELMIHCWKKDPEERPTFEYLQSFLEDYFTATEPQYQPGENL

FGFR3 = FGFR3 (UniProt P22607); assay: as above
Jak2 = Jak2 (UniProt O60674); assay: as above
Jak2, sequence (O60674 whole entry, looked up): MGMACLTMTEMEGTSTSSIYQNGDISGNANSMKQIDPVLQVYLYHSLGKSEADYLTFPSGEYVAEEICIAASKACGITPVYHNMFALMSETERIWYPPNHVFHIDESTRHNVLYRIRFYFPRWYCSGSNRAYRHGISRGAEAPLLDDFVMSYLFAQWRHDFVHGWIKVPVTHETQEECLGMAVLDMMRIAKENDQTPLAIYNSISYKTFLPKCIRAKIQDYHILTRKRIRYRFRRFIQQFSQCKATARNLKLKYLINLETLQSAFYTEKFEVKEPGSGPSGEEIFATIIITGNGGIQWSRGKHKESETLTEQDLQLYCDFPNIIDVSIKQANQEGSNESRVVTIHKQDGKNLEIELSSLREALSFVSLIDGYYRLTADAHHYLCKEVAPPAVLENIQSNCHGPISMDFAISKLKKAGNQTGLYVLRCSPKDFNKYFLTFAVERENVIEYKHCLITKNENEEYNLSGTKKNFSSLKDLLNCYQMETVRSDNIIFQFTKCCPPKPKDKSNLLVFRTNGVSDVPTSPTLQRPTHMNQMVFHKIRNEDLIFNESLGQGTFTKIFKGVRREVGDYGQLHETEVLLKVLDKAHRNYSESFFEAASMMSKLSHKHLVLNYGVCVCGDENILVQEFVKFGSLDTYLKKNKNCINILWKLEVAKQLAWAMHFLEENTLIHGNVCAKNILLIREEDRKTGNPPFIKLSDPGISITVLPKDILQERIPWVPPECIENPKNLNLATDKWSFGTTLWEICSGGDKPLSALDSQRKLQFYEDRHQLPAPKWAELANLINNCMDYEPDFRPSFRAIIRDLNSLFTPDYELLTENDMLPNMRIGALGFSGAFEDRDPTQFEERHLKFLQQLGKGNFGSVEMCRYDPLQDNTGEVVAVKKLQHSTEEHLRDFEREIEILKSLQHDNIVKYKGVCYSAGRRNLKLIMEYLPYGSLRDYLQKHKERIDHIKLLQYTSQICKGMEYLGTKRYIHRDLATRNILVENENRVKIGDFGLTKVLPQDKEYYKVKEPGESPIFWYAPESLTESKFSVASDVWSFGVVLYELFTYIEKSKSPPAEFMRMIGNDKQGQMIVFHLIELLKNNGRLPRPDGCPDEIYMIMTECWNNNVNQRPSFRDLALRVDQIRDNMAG

FGFR1 = FGFR1 (UniProt P11362); assay: as above
Fes = Fes (UniProt P07332); assay: as above
Fes, sequence (P07332 whole entry, looked up): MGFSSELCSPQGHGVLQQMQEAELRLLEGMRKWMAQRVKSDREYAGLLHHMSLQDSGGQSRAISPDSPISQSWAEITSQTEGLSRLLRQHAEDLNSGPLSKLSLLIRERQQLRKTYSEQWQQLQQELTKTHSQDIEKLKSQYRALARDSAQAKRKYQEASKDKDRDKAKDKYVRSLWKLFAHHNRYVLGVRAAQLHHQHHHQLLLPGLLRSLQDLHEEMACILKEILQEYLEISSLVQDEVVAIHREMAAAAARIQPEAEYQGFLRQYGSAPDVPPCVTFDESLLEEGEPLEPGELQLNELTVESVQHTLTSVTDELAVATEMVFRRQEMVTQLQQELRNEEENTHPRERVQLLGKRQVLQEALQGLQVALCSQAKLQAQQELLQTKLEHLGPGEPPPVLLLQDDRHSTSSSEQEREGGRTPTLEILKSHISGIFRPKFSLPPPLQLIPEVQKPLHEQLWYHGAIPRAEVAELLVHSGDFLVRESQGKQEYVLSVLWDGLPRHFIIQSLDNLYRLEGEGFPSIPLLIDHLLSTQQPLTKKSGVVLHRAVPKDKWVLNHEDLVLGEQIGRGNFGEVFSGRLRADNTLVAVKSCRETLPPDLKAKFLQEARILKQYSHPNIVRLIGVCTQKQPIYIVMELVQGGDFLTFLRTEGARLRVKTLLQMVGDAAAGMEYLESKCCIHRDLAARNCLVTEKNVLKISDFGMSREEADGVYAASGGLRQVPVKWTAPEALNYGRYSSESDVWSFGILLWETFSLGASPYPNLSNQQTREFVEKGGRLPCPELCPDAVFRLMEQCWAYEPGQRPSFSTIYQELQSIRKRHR

AncSZ = assay: as above
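Throughout, for SH2 binding enrichment of the phosphorylated peptide, bacterial display: peptide library displayed on the E. coli surface as eCPX fusions, selected cells deep-sequenced, score is each peptide's frequency after selection divided by its frequency in the input.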
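Throughout, for phosphorylation enrichment, bacterial display: 11-residue human phosphosite peptides and single-mutation variants displayed on the E. coli surface, counted by deep sequencing, each peptide's frequency after selection divided by its frequency in the unselected input library; frequency after pTyr selection over input frequency; kinase dosed for 20-30% of maximal phosphorylation in three min.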

Grb2 SH2, sequence (P62993 whole entry, looked up): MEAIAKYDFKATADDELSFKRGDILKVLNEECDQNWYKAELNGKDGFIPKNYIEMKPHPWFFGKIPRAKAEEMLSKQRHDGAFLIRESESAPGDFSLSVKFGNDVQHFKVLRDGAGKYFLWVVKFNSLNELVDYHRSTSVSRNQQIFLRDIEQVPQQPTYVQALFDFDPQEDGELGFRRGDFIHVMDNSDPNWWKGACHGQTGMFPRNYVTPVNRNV

| Sequence | SH2 binding enrichment (Grb2 SH2) | SH2 binding enrichment (SHP2-C SH2) | SH2 binding enrichment (c-Src SH2) | phosphorylation enrichment (MERTK) | phosphorylation enrichment (EPHB1) | phosphorylation enrichment (c-Src) | phosphorylation enrichment (EPHB2) | phosphorylation enrichment (c-Abl (mouse)) | phosphorylation enrichment (Hck) | phosphorylation enrichment (Fer (mouse)) | phosphorylation enrichment (Fyn) | phosphorylation enrichment (FGFR3) | phosphorylation enrichment (Jak2) | phosphorylation enrichment (FGFR1) | phosphorylation enrichment (Fes) | phosphorylation enrichment (AncSZ) |
| --- | --- | --- | --- | --- | --- | --- | --- | --- | --- | --- | --- | --- | --- | --- | --- | --- |
| THPFLYLSLEI [MLH1_Y293] | 1.19 | 0.74 | 0.682 | 0.385 | 0.628 | 0.363 | 0.648 | 0.817 | 0.516 | 0.478 | 0.383 | 0.827 | 1.4 | 0.622 | 1.52 | 1.13 |
| THPFLYLTLEI [MLH1_Y293_S295T] | 0.873 | 0.688 | 0.623 | 0.524 | 0.889 | 0.548 | 0.889 | 1.22 | 0.556 | 0.778 | 0.473 | 1.23 | 1.97 | 0.652 | 2 | 1.71 |
| THPFPYLSLEI [MLH1_Y293_L292P] | 1.04 | 0.752 | 2.05 | 0.414 | 0.502 | 0.554 | 0.474 | 0.715 | 0.475 | 0.39 | 0.295 | 0.677 | 1.09 | 0.657 | 0.978 | 0.909 |
| TIQDAYMHITS [ADCY10_Y318_A313T] | 0.902 | 0.895 | 1.26 | 0.529 | 0.479 | 0.451 | 0.398 | 0.525 | 0.496 | 0.416 | 0.51 | 0.43 | 0.676 | 0.624 | 0.799 | 0.7 |
| TIQIMFGCDVG [HLA-A_Y123_Y123F] | 0.861 | 0.84 | 0.515 | 0.503 | 0.905 | 0.548 | 0.801 | 1.01 | 0.619 | 0.749 | 0.545 | 1.14 | 1.42 | 0.645 | 1.86 | 1.28 |
| TKDTFYKQRMF [GBA_Y451_P454R] | 0.83 | 0.68 | 0.396 | 0.372 | 0.359 | 0.351 | 0.406 | 0.458 | 0.339 | 0.416 | 0.344 | 0.391 | 0.404 | 0.41 | 0.579 | 0.56 |
| TKEPKYGGAGS [KIAA1210_Y1615_E1616G] | 1.08 | 0.983 | 0.487 | 0.384 | 0.431 | 0.409 | 0.44 | 0.462 | 0.361 | 0.457 | 0.459 | 0.548 | 0.416 | 0.405 | 0.55 | 0.5 |
| TKFRNYLIPKG [CYP2C8_Y379] | 1.1 | 0.92 | 0.631 | 0.374 | 0.374 | 0.443 | 0.421 | 0.573 | 0.429 | 0.345 | 0.365 | 0.425 | 0.592 | 0.381 | 0.565 | 0.47 |
| TKGNEYVFRVA | 0.871 | 1.39 | 0.469 | 0.452 | 0.415 | 0.489 | 0.565 | 0.537 | 0.511 | 0.386 | 0.496 | 0.619 | 0.549 | 0.519 | 0.82 | 0.826 |
| TKLKDYFIFNK [CCDC42_Y149_A144T_YF] | 0.773 | 0.595 | 0.724 | 0.401 | 0.52 | 0.575 | 0.353 | 0.476 | 0.42 | 0.376 | 0.419 | 0.871 | 0.702 | 1.05 | 0.766 | 0.685 |
| TKYVAYIESQG [KDM4B_Y34_N29T] | 0.8 | 8.32 | 0.675 | 0.331 | 0.456 | 0.418 | 0.611 | 0.508 | 0.485 | 0.432 | 0.546 | 0.608 | 0.498 | 0.541 | 0.828 | 0.924 |
| TLLPDYEDEEE [ZNF830_Y159_S154T] | 1.06 | 0.815 | 0.635 | 0.546 | 0.925 | 0.62 | 0.962 | 0.846 | 0.709 | 0.788 | 0.605 | 0.938 | 1.1 | 0.683 | 1.28 | 1.64 |
| TNEFEYDELIV [TGM1_Y136_D132N_YF] | 0.804 | 0.679 | 0.47 | 0.483 | 0.51 | 0.669 | 0.424 | 0.951 | 0.747 | 0.709 | 0.475 | 0.887 | 1.37 | 0.658 | 1.61 | 1.61 |
| TNFCLYLRSLE [MTM1_Y71_R69C_YF] | 0.773 | 0.644 | 0.525 | 0.492 | 0.895 | 0.612 | 0.759 | 1.27 | 0.567 | 0.847 | 0.594 | 0.995 | 1.7 | 0.512 | 1.69 | 1.62 |
